One assay addresses human serum proteins. The assay can be described thus: cell-based or functional assay.
The target in the next assay is D36 (D40(A13K/A16K)). The assay can be described thus: RP-HPLC temperature profiling 5-77 C, pH 2, self-association (dimerization/oligomerization) relative to random coil control RC.
Another assay has as its target D33 (D37(A13K/A16K)). The assay is described as above.
The next assay deals with D34 (D38(A13K/A16K)). Described as above.
For the next assay, the target named is D35 (D39(A13K/A16K)). The assay is described as above.
The target in assay [1] is D84 (D33(A1K)). The experiment in a line: RP-HPLC temperature profiling (0.25% B/min gradient), Mix 1, self-association relative to RC.
The target in assay [2] is D84 (D33(A1K)). The experiment in a line: RP-HPLC temperature profiling (0.25% B/min gradient), Mix 2, self-association relative to RC.
The target of assay [3] is D84 (D33(A1K)). The assay can be described thus: RP-HPLC temperature profiling (0.25% B/min gradient), Mix 4, self-association relative to RC.
The target in assay [4] is D84 (D33(A1K)). The experiment in a line: RP-HPLC temperature profiling (0.25% B/min gradient), Mix 3, self-association relative to RC.

Non-standard residues stand in square brackets, D forms with d. No end group written: not given here.

B1: D36 (D40(A13K/A16K)) (peptide)
peptide: [dA][dL][dA][dS][dL][dL][dK][dT][dL][dS][dK][dA][dK][dK][dK][dK][dL][dK][dT][dL][dL][dK][dA][dL][dS][dA]-NH2
modifications: N-terminus assumed
SMILES: CC(C)C[C@@H](NC(=O)[C@@H](C)N)C(=O)N[C@H](C)C(=O)N[C@H](CO)C(=O)N[C@H](CC(C)C)C(=O)N[C@H](CC(C)C)C(=O)N[C@H](CCCCN)C(=O)N[C@@H](C(=O)N[C@H](CC(C)C)C(=O)N[C@H](CO)C(=O)N[C@H](CCCCN)C(=O)N[C@H](C)C(=O)N[C@H](CCCCN)C(=O)N[C@H](CCCCN)C(=O)N[C@H](CCCCN)C(=O)N[C@H](CCCCN)C(=O)N[C@H](CC(C)C)C(=O)N[C@H](CCCCN)C(=O)N[C@@H](C(=O)N[C@H](CC(C)C)C(=O)N[C@H](CC(C)C)C(=O)N[C@H](CCCCN)C(=O)N[C@H](C)C(=O)N[C@H](CC(C)C)C(=O)N[C@H](CO)C(=O)N[C@H](C)C(N)=O)[C@H](C)O)[C@H](C)O
As for B1, the MIC against A. baumannii strain 649 in 25% human serum (no serum: 0.4) with human serum proteins came to 0.7 µM. The molecule also showed a PA (self-association parameter) with D36 (D40(A13K/A16K)) of 5.6 min.

B2: D33 (D37(A13K/A16K)) (peptide)
peptide: [dA][dL][dK][dS][dL][dL][dK][dT][dL][dS][dK][dA][dK][dA][dA][dK][dL][dK][dT][dL][dL][dK][dA][dL][dS][dK]-NH2
modifications: N-terminus assumed
SMILES: CC(C)C[C@@H](NC(=O)[C@@H](C)N)C(=O)N[C@H](CCCCN)C(=O)N[C@H](CO)C(=O)N[C@H](CC(C)C)C(=O)N[C@H](CC(C)C)C(=O)N[C@H](CCCCN)C(=O)N[C@@H](C(=O)N[C@H](CC(C)C)C(=O)N[C@H](CO)C(=O)N[C@H](CCCCN)C(=O)N[C@H](C)C(=O)N[C@H](CCCCN)C(=O)N[C@H](C)C(=O)N[C@H](C)C(=O)N[C@H](CCCCN)C(=O)N[C@H](CC(C)C)C(=O)N[C@H](CCCCN)C(=O)N[C@@H](C(=O)N[C@H](CC(C)C)C(=O)N[C@H](CC(C)C)C(=O)N[C@H](CCCCN)C(=O)N[C@H](C)C(=O)N[C@H](CC(C)C)C(=O)N[C@H](CO)C(=O)N[C@H](CCCCN)C(N)=O)[C@H](C)O)[C@H](C)O
Turning to B2, the MIC against A. baumannii strain 649 in 25% human serum (no serum: 0.1) with human serum proteins is 0.7 µM. The same molecule had a PA (self-association parameter) with D33 (D37(A13K/A16K)) of 5.3 min.

B3: D34 (D38(A13K/A16K)) (peptide)
peptide: [dA][dL][dK][dS][dL][dL][dK][dT][dL][dS][dA][dA][dK][dK][dK][dK][dL][dA][dT][dL][dL][dK][dA][dL][dS][dK]-NH2
modifications: N-terminus assumed
SMILES: CC(C)C[C@@H](NC(=O)[C@@H](C)N)C(=O)N[C@H](CCCCN)C(=O)N[C@H](CO)C(=O)N[C@H](CC(C)C)C(=O)N[C@H](CC(C)C)C(=O)N[C@H](CCCCN)C(=O)N[C@@H](C(=O)N[C@H](CC(C)C)C(=O)N[C@H](CO)C(=O)N[C@H](C)C(=O)N[C@H](C)C(=O)N[C@H](CCCCN)C(=O)N[C@H](CCCCN)C(=O)N[C@H](CCCCN)C(=O)N[C@H](CCCCN)C(=O)N[C@H](CC(C)C)C(=O)N[C@H](C)C(=O)N[C@@H](C(=O)N[C@H](CC(C)C)C(=O)N[C@H](CC(C)C)C(=O)N[C@H](CCCCN)C(=O)N[C@H](C)C(=O)N[C@H](CC(C)C)C(=O)N[C@H](CO)C(=O)N[C@H](CCCCN)C(N)=O)[C@H](C)O)[C@H](C)O
In turn, B3 showed an MIC against A. baumannii strain 649 in 25% human serum (no serum: 0.2) with human serum proteins of 1.4 µM. Also, in the assay with D34 (D38(A13K/A16K)), the PA (self-association parameter) was 5.7 min.

B4: D35 (D39(A13K/A16K)) (peptide)
peptide: [dA][dL][dK][dS][dL][dL][dA][dT][dL][dS][dK][dA][dK][dK][dK][dK][dL][dK][dT][dL][dL][dA][dA][dL][dS][dK]-NH2
modifications: N-terminus assumed
SMILES: CC(C)C[C@@H](NC(=O)[C@@H](C)N)C(=O)N[C@H](CCCCN)C(=O)N[C@H](CO)C(=O)N[C@H](CC(C)C)C(=O)N[C@H](CC(C)C)C(=O)N[C@H](C)C(=O)N[C@@H](C(=O)N[C@H](CC(C)C)C(=O)N[C@H](CO)C(=O)N[C@H](CCCCN)C(=O)N[C@H](C)C(=O)N[C@H](CCCCN)C(=O)N[C@H](CCCCN)C(=O)N[C@H](CCCCN)C(=O)N[C@H](CCCCN)C(=O)N[C@H](CC(C)C)C(=O)N[C@H](CCCCN)C(=O)N[C@@H](C(=O)N[C@H](CC(C)C)C(=O)N[C@H](CC(C)C)C(=O)N[C@H](C)C(=O)N[C@H](C)C(=O)N[C@H](CC(C)C)C(=O)N[C@H](CO)C(=O)N[C@H](CCCCN)C(N)=O)[C@H](C)O)[C@H](C)O
In the assay with human serum proteins, B4 returned an MIC against A. baumannii strain 649 in 25% human serum (no serum: 0.4) of 1.4 µM. The same molecule gave a PA (self-association parameter) in the assay with D35 (D39(A13K/A16K)) of 5.5 min.
Ac-KLKSLLKTLSKAKAAKLKTLLKALSK-NH2 (not fully specified; also: D-enantiomeric residues, extent not given here) [D84 (D33(A1K))]: the PA (self-association parameter) with D84 (D33(A1K)) [1], with D84 (D33(A1K)) [2], with D84 (D33(A1K)) [3] and with D84 (D33(A1K)) [4] was 6.8 min each time.

Source of the values: patent publication US20200129634A1.
